B1: SPSB1 (parent)
chain: DMRDPTYRPLKQELQGLDYCKPTR
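Also: lentivirally expressed fusions sorted by FACS into six bins by GFP to DsRed ratio, PSI derived from sequencing read proportions per bin multiplied by bin number.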

Variants of: B1
Experiment: protein stability index of a GFP-peptide fusion (GPS, HEK-293T) (PSI 1-6); higher = more stable
Conditions: c terminus: a fixed tail appended
Work on DMRDPTYRPLKIELQGLDYCKPTR [Q12I] yielded a protein stability index of 2.35. With DMRDPRYRPLKQELQGLDYCKPTR [T6R] the protein stability index was 3.62. Work on DMRDPHYRPLKQELQGLDYCKPTR [T6H] yielded a protein stability index of 2.9. DMRDPIYRPLKQELQGLDYCKPTR [T6I] gave a protein stability index of 3.63. Work on DMRDPQYRPLKQELQGLDYCKPTR [T6Q] yielded a protein stability index of 3.55. With DMRDPWYRPLKQELQGLDYCKPTR [T6W] the protein stability index was 4.09. In the case of DMRDPYYRPLKQELQGLDYCKPTR [T6Y], the protein stability index is reported as 2.98. For DMRDPKYRPLKQELQGLDYCKPTR [T6K], the protein stability index was 3.47. Work on DMRDPTARPLKQELQGLDYCKPTR [Y7A] yielded a protein stability index of 2.08. Variant DMRDPTIRPLKQELQGLDYCKPTR [Y7I] has a protein stability index of 2.54. In the case of DMRDPTVRPLKQELQGLDYCKPTR [Y7V], the protein stability index is reported as 3.5. DMRDPTDRPLKQELQGLDYCKPTR [Y7D] gave a protein stability index of 3.61. DMRDPTGRPLKQELQGLDYCKPTR [Y7G] gave a protein stability index of 2.64. In the case of DMRDSTYRPLKQELQGLDYCKPTR [P5S], the protein stability index is reported as 3.61. Variant DMRDITYRPLKQELQGLDYCKPTR [P5I] has a protein stability index of 2.63. With DMRDCTYRPLKQELQGLDYCKPTR [P5C] the protein stability index was 3.21. For DMRDPTYRPLKQELQGCDYCKPTR [L17C], the protein stability index was 3.85. For DMRDPTYRPLKQELQGEDYCKPTR [L17E], the protein stability index was 4.37. With DMRDPTYRPLKQELQGNDYCKPTR [L17N] the protein stability index was 4.33. DMRDPTYRPLKQELQGFDYCKPTR [L17F] showed a protein stability index of 3.08. For DMRDPTYRPLKQELQGLDYCMPTR [K21M], the protein stability index was 2.39. In the case of DMRDPTYRPLKQELQGLDYCVPTR [K21V], the protein stability index is reported as 3.65. DMRDPTYRPLKQELQGLDYCDPTR [K21D] gave a protein stability index of 1.74. DMRDPTYRPLKQELQGLDYCFPTR [K21F] showed a protein stability index of 1.6. Work on DMRDPTYRPLKQELQGLDYCWPTR [K21W] yielded a protein stability index of 1.98. With DMRDPTYRPLKQELQGLDYCNPTR [K21N] the protein stability index was 1.78. With DMRDPTYRPLKQELQGLDYCQPTR [K21Q] the protein stability index was 2.64. Variant DQRDPTYRPLKQELQGLDYCKPTR [M2Q] has a protein stability index of 3.26. In the case of DNRDPTYRPLKQELQGLDYCKPTR [M2N], the protein stability index is reported as 3.38. For DARDPTYRPLKQELQGLDYCKPTR [M2A], the protein stability index was 3.22. DWRDPTYRPLKQELQGLDYCKPTR [M2W] gave a protein stability index of 2.57. With DERDPTYRPLKQELQGLDYCKPTR [M2E] the protein stability index was 3.51. Work on DRRDPTYRPLKQELQGLDYCKPTR [M2R] yielded a protein stability index of 3.71. For DMRDPTYRPLKQELQGLRYCKPTR [D18R], the protein stability index was 3.97. In the case of DMRDPTYRPLKQELQGLQYCKPTR [D18Q], the protein stability index is reported as 3.83. In the case of DMRDPTYRPLKQELQGLHYCKPTR [D18H], the protein stability index is reported as 3.73. In the case of DMRDPTYRPLKQELQGLYYCKPTR [D18Y], the protein stability index is reported as 2.99. DMRDPTYRPLKQELQGLGYCKPTR [D18G] showed a protein stability index of 3.81. For DMRDPTYRPLKQELQGLNYCKPTR [D18N], the protein stability index was 2.28. With DMRDPTYRPLKQELQGLSYCKPTR [D18S] the protein stability index was 3.48. DMRDPTYRPLKQELQGLVYCKPTR [D18V] gave a protein stability index of 3.58. In the case of DMRDPTYRPLKQELQGLMYCKPTR [D18M], the protein stability index is reported as 2.94. DMRDPTYRPLKQELQGLCYCKPTR [D18C] gave a protein stability index of 3.08. With DMRDPTYRPLKQELQGLDYYKPTR [C20Y] the protein stability index was 3.58. For DMRDPTYRPLKQELQGLDYLKPTR [C20L], the protein stability index was 2.98. In the case of DMRDPTYRPLKQELQGLDYWKPTR [C20W], the protein stability index is reported as 2.15. Variant DMRDPTYRPLKQELQGLDYVKPTR [C20V] has a protein stability index of 1.78. Work on DMRDPTYRPLKQELQGLDYIKPTR [C20I] yielded a protein stability index of 2.77. DMRIPTYRPLKQELQGLDYCKPTR [D4I] showed a protein stability index of 3.13. Work on DMRAPTYRPLKQELQGLDYCKPTR [D4A] yielded a protein stability index of 3.54. Variant DMRNPTYRPLKQELQGLDYCKPTR [D4N] has a protein stability index of 2.74. DMRKPTYRPLKQELQGLDYCKPTR [D4K] gave a protein stability index of 3.13. Work on DMRLPTYRPLKQELQGLDYCKPTR [D4L] yielded a protein stability index of 2.77. Variant DMRSPTYRPLKQELQGLDYCKPTR [D4S] has a protein stability index of 2.61. For DMRYPTYRPLKQELQGLDYCKPTR [D4Y], the protein stability index was 2.83. DMRDPTYLPLKQELQGLDYCKPTR [R8L] gave a protein stability index of 3.23. Variant DMRDPTYDPLKQELQGLDYCKPTR [R8D] has a protein stability index of 3.95. DMRDPTYIPLKQELQGLDYCKPTR [R8I] gave a protein stability index of 3.31. In the case of DMRDPTYQPLKQELQGLDYCKPTR [R8Q], the protein stability index is reported as 3.83. In the case of DMRDPTYNPLKQELQGLDYCKPTR [R8N], the protein stability index is reported as 3.46. In the case of DMRDPTYYPLKQELQGLDYCKPTR [R8Y], the protein stability index is reported as 3.13. Variant DMRDPTYRPLKQEPQGLDYCKPTR [L14P] has a protein stability index of 3.89. DMRDPTYRPLKQEQQGLDYCKPTR [L14Q] gave a protein stability index of 4.29. For DMRDPTYRPLKQEDQGLDYCKPTR [L14D], the protein stability index was 3.83. DMRDPTYRPLKQEGQGLDYCKPTR [L14G] showed a protein stability index of 4.04. DMRDPTYRPLKQELQGLDYCKPKR [T23K] gave a protein stability index of 3.9. With DMRDPTYRPLKQELQGLDYCKPER [T23E] the protein stability index was 3.92. For DMRDPTYRPLKQELQGLDYCKPAR [T23A], the protein stability index was 3.18. DMRDPTYRPLKQELQGLDYCKPGR [T23G] showed a protein stability index of 4.26. DMRDPTYRPLKQELQGLDYCKPSR [T23S] showed a protein stability index of 2.92. Work on DMRDPTYRPLKQELQGLDYCKATR [P22A] yielded a protein stability index of 3.44. DMRDPTYRPLKQELQGLDYCKDTR [P22D] showed a protein stability index of 4.68. Variant DMRDPTYRPLKQELQGLDYCKQTR [P22Q] has a protein stability index of 4.26. DMRDPTYRPLKQELQGLDYCKGTR [P22G] showed a protein stability index of 4.1. In the case of DMRDPTYRPLKQELGGLDYCKPTR [Q15G], the protein stability index is reported as 2.25. In the case of DMRDPTYRPLKQELKGLDYCKPTR [Q15K], the protein stability index is reported as 3.59. In the case of DMRDPTYRPLKQELHGLDYCKPTR [Q15H], the protein stability index is reported as 2.7. Variant DMRDPTYRPLKQELFGLDYCKPTR [Q15F] has a protein stability index of 2.6. In the case of DMRDPTYRPLKQELMGLDYCKPTR [Q15M], the protein stability index is reported as 3.33. DMRDPTYRPLKQELEGLDYCKPTR [Q15E] showed a protein stability index of 3.87. Work on DMRDPTYRPLKQELQLLDYCKPTR [G16L] yielded a protein stability index of 3.45. DMRDPTYRPLKQELQKLDYCKPTR [G16K] gave a protein stability index of 3.34. In the case of DMRDPTYRPLKQELQTLDYCKPTR [G16T], the protein stability index is reported as 3.36. Variant DMRDPTYRPLKQELQMLDYCKPTR [G16M] has a protein stability index of 3.35. Work on DMRDPTYRPLKQELQELDYCKPTR [G16E] yielded a protein stability index of 2.93. Work on DMRDPTYRPLKQELQPLDYCKPTR [G16P] yielded a protein stability index of 3.06. Work on DMRDPTYRALKQELQGLDYCKPTR [P9A] yielded a protein stability index of 2.69. In the case of DMRDPTYRQLKQELQGLDYCKPTR [P9Q], the protein stability index is reported as 2.72. In the case of DMRDPTYRHLKQELQGLDYCKPTR [P9H], the protein stability index is reported as 2.35. Variant DMRDPTYRWLKQELQGLDYCKPTR [P9W] has a protein stability index of 2.99. Variant DMRDPTYRRLKQELQGLDYCKPTR [P9R] has a protein stability index of 2.25. In the case of DMRDPTYRDLKQELQGLDYCKPTR [P9D], the protein stability index is reported as 3.28. DMRDPTYRILKQELQGLDYCKPTR [P9I] gave a protein stability index of 3.32. DMRDPTYRFLKQELQGLDYCKPTR [P9F] gave a protein stability index of 3.26.
